Source: the nanobody polyreactivity screen of Harvey et al. (2022)

Test: yeast display, Sf9 membrane polyspecificity reagent, FACS + sequencing; frameworks hold sequencing errors
Procedure, shortened: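 Galactose-induced (36–48 hours) yeast carrying a synthetic nanobody display library were exposed to 10% biotinylated, detergent-solubilized Sf9 membrane reagent at 4 °C for 1 hour. FACS followed streptavidin microbead enrichment, using low and high (top ~1%) gates for expression (anti-HA) and reagent binding (streptavidin). Colony PCR, MiSeq 2 × 250 sequencing and CDR-length filtering followed. Labels for polyreactivity reflect the gate of origin.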

| Sequence | polyreactivity (PSR sort gate) |
| --- | --- |
| QVQLVESGGGLVQAGGSLRLSCAASGRIFSRYVMGWYRQAPGKERELVAAISGRATSTYYADSVKGRFTISRDNAKNTVYLQMNSLKPEDTAVYYCATGYKTYAVTLYDYWGQGTQVTVSS | high polyreactivity |
| QVQLVESGGGLVHAGGSLRLSCAASGITFERYAMGWYRQAPGKERELVAAITSSGGSTYYADSVKGRFTISRDNAKNTVYLQMNSLKPEDTAVYYCAARTAYTPRHDYWGQGTEVTVSS | high polyreactivity |
| QVQLVESGGGLVQAGGSLRLSCAASGRTFTRYAMGWYRQAPGKERELVATINSSGDRTYYADSVKGRFTISRDNAKNTVYLQMNSLKPEDTAVYYCAKRWSPYLYGYWGQGTQVTVSS | high polyreactivity |
| QVQLVESGGGLVQAGGSLRLSCAASGRTFCYAMGWSRQAPGKERELVAAISYRGGGTYYADSVTGRFTISRDNAKYTVYLQMTSLKPEDTEVYFCNARQYRPWYPPYGYDYWGQGTQVTVSS | low polyreactivity |
| QVQLVESGGGLVQAGGSLRLSCAASGSTFNNNAMGWYRQAPGKERELVAAISYTGGSTYYADSVKGRFTISRDIAKYTVYLQMNSLKPEDSAVYYCARRQARKFYYWGQGTQVTVSS | high polyreactivity |
| QVQLVETGGGLVQAGGSLRLSCAASGSIFVYNAMGWYRQAPGKERELVAGITFIGGSTYYADSVKGRFTISRDNAKNTVFLQMNSLKPEDTAVYYCNADVAPGIFYGYDSWGQGTQVTVSS | low polyreactivity |
| QVQLAESGGCLVQAGGSLRLSCAASGIIFYFYAMGWYRPAPGKERELVAAISGTGGRTYYADSVKGRFTISRDNAKNTVSLQMNSLKPDDTAVYYCNADDTPVPSIRFDYWGQGTQVTVSS | low polyreactivity |
| QVQLVESGGGLVQAGGSLRLSCAASGRTFWRYAMGWYRQAPGKERELVAAITSGGGSTYYADSVKGRFTISRDNAKNTVYLQMNSLKPEDTAVYYCNRAGRGRSFKGDYWGQGTQVTVSS | high polyreactivity |
| QVQLVESGGGLVQAGGSLRLSCAASGSTFDTYAMGWYRPAPGKERELVAGMTRRGGRTYYADSVKGRFTISRDTAKNTVYLQKNSLKPEDTADYYCNAVPQRPVGKLDHWGQGTQVTVSS | high polyreactivity |
| QVQLVESGGGLVQAGGSLRLSGAASGITFGDYAMGWYRQEPGKERELVAAISYSGGSTYYTDSVKGRFTISRDNAKNTVYLQMNSLKPEDTAVYYCAARFRQLGLAYYYWGQGTQVTVSS | high polyreactivity |
| QVQLVESGGGLVQAGGSLRLSCAASGSISGSYAMGWYRQAPGKERELVASITTSGGGTYYADSVKGRFTISRDNAKNTVYLQMNSLKPEDTAVYYCAVEYGYPYAGLDYWGQGTQVTVSS | low polyreactivity |
| QVQLVESGGGLVQAGGSLRLSCAASGRTFGYYAMGWYRQAPGKERELVAAINSRGGSTYYADSVKGRFTISRDNAKNTVYLQMNSLKPEDTAVYYCAVVRWRQYIFATYDYWGQGTQVTVSS | high polyreactivity |
| QVQLVESGGGLVKAGGSLRLSCAASGFTFLNNTMGWYRQAPGKERELVAGITSSGDRTYYADSVKGRFTISRDNAKNTVYLQMNSLKPEDTAVYYCNADSSYPPGYDYWGQGTQVTVSS | low polyreactivity |
| QVQLVESGRGLVQAGGSLRLSCAASGRTFDPYAMGWYRQAPGKERELVAAITSGDDTYYADSVKGRFTISRDYAKNTVYLQMNSLKPEHTAVYYCAADSFTPDYYYHDYWGQGTQVRVSS | low polyreactivity |
| QVQLVESGGGLVQAGGSLRLSCAASGRIFYYYDMGWYRQAPGKERELVAGINDDSSTYYADSVKGRFTISRDNAKNTVYLQMNSLKPEDTAVYYCNAGPSWYPSWYYYWGQGTQVTVSS | low polyreactivity |
| QVQLVESGGGLDQAGGSLRLSCAASGSTFYYYAMGWYRQAPGKERELVASISDDGSTNYADSVKGRFTISRDNAKNTVYLQMNSLKPEDTAVYYCAAVWWHQFGSAWYQMGYWGQGTQVTVSS | low polyreactivity |
| QVHLVESGGGLVQAGGSLRLSCAASGRNSLRNGMGWYKQAPGKEWELDPAITSGSSTDYADSVKGRFTISRDNAKNTVDLEMNSLKPEDTAVSYCAKDLLQYGPGAGRYDYWGQGTQVTVSS | low polyreactivity |
| QVQLVESGGGLVQAGGSLRLSCAASGFIFSIYALGWYRQAPGKERELVAAISKSGGRTYYADSVKGRFTISRDNAKNTVYLQMNSLKPEDTAVYYCAVDSYYKYDYWGQGTQVTVSS | high polyreactivity |
| QVQLVESGGGLVQAGGSLRLSCAASGFTFYGYGMGWYRQAPGKERELVAGISSGGGSTFYADSVKGRFTISRDNAKNTVYLQMNSLKPEDTAVYYCAALHYGGYFSYYPYYYWGQGTQVTVSS | low polyreactivity |
| QVQLVESGGGLVQAGGILRLSCAASGITFRYYAMGWYRQAPGKERELVAAITGNGGGTYADSVKGRFTISRDTAKYTGYLQMNSLKPEVTAVNYCSADYGRRWGYDYWGQGTQVTVSS | low polyreactivity |
| QVPLVESGVGLVQAGGSLRLSCAASGSIFSYYAMGWYRQATGKERELVAAITVRGGSTYYADSVKGRFSISRDNAKNTVYLQMYSLIPEDTAVYYCAAVWLDESFSYGPYYYWGQGTQVTVSS | low polyreactivity |
